Reference: US6071715, “Nucleic acids encoding novel proteins which bind to retinoblastoma protein” (Board of Regents, The University of Texas System, dated 2000)

Target: p56Rb, carboxyl terminus of the Rb protein (Homo sapiens (Human), UniProt P06400)
Assay: native polyacrylamide gel of the purified proteins, silver stain

B1: chimeric p48 protein containing a modified C-terminus, encoded by plasmid pET-48NB (other)
chain: MADKEAAFDDAVEERVINEEYKIWKKNTPFLYDLVMTHALEWPSLTAQWLPDVTRPEGKDFSIHRLVLGTHTSDEQNHLVIASVQLPNDDAQFDASHYDSEKGEFGGFGSVSGKIEIEIKINHEGEVNRARYMPQNPCIIATKTPSSDVLVFDYTKHPSKPDPSGECNPDLRLRGHQKEGYGLSWNPNLSGHLLSASDDHTICLWDISAVPKEGKVVDAKTIFTGHTAVVEDVSWHLLHESLFGSVADDQKLMIWDTRSNNTSKPSHSVDAHTAEVNCLSFNPYSEFILATGSADKTVALWDLRNLKLKLHSFESHKDEIFQVQWSPHNETILASSGTDRRLNVWDLSKIGEEQSPEDAEDGPPELLFIHGGHTAKISDFSWNPNEPWVICSVSEDNIMQVWQMAENIYNDEDPEGSVDPAANKARKEAELAAANAEQ
**Q.** Does B1 bind?
**A.** Result: binds
